B1: AM14 (trimeric prefusion specific antibody of the AM14 ELISA) (antibody, V domains shown)
VH: EVQLVESGGGVVQPGRSLRLSCAASGFSFSHYAMHWVRQAPGKGLEWVAVISYDGENTYYADSVKGRFSISRDNSKNTVSLQMNSLRPEDTALYYCARDRIVDDYYYYGMDVWGQGATVTVSS
VL: DIQMTQSPSSLSASVGDRVTITCQASQDIKKYLNWYHQKPGKVPELLMHDASNLETGVPSRFSGRGSGTDFTLTISSLQPEDIGTYYCQQYDNLPPLTFGGGTKVEIKR
notes: Antibody as used in the AM14 ELISA, detected with an HRP-labeled secondary antibody

What was measured:
[1] = molecular target: RSV A + RSV B bivalent composition (RSV subtype A; RSV subtype B); assay: AM14 Fab titration by SEC; Target cycle; 3 M 25°C
[2] = molecular target: RSV A + RSV B bivalent composition (RSV subtype A; RSV subtype B); assay: AM14 Fab titration by SEC; High-Slow 2 cycle; 1 M 2-8°C
[3] = molecular target: RSV A + RSV B bivalent composition (RSV subtype A; RSV subtype B); assay: AM14 Fab titration by SEC; composition of Table 14; Freezing Ramp Aggressive cycle
[4] = molecular target: RSV A + RSV B bivalent composition (RSV subtype A; RSV subtype B); assay: AM14 Fab titration by SEC; High-Slow 1 cycle; 3 M 25°C
[5] = molecular target: RSV A + RSV B bivalent composition (RSV subtype A; RSV subtype B); assay: AM14 Fab titration by SEC; High-Slow 1 cycle; 3 M 40°C
[6] = molecular target: T1, RSV F protein of subtype A comprising a polypeptide of SEQ ID NO: 1 and a polypeptide of SEQ ID NO: 2 (RSV subtype A, UniProt P11209 137-513; P03420 26-109); assay: AM14 ELISA; F14 (pH 7, 50 mM NaCl, 4.5% sucrose); 2 wk 5°C
T1 construct: Stabilized prefusion F trimer made of three F2-F1 heterodimers; Produced recombinantly in CHO cells; also called RSV A; RSVA
T1 chain 1: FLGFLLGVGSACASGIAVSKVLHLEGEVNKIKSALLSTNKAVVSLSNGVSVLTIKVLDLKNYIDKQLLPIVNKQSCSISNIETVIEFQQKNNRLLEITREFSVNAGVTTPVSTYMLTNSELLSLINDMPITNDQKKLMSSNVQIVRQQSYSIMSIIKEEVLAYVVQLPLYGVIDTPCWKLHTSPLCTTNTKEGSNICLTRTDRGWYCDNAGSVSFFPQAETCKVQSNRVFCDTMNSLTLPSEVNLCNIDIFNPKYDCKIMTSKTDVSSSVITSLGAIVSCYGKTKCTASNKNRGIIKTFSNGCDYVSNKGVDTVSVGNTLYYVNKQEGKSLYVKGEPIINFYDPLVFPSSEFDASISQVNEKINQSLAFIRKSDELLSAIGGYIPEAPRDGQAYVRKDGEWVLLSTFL
T1 chain 2: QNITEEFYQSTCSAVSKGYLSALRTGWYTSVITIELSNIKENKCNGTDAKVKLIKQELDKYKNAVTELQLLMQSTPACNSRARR

[7] = molecular target: T1, RSV F protein of subtype A comprising a …; assay: AM14 ELISA; F17 (pH 7, 50 mM NaCl, 4.5% trehalose); 1 wk 25°C
[8] = molecular target: T1, RSV F protein of subtype A comprising a …; assay: AM14 ELISA; F15 (pH 6, 0 mM NaCl, 9% sucrose); T0
[9] = molecular target: T1, RSV F protein of subtype A comprising a …; assay: AM14 ELISA; F12 (pH 8, 100 mM NaCl, 9.0% sucrose); 2 wk 25°C
[10] = molecular target: T1, RSV F protein of subtype A comprising a …; assay: AM14 ELISA; F10 (pH 7, 50 mM NaCl, 4.5% sucrose); 1 wk 25°C
[11] = molecular target: T1, RSV F protein of subtype A comprising a …; assay: AM14 ELISA; F7 (pH 6, 100 mM NaCl, 0% sucrose); 1 wk 25°C
[12] = molecular target: T1, RSV F protein of subtype A comprising a …; assay: AM14 ELISA; F1 (pH 8, 100 mM NaCl, 0% sucrose); T0
[13] = molecular target: T1, RSV F protein of subtype A comprising a …; assay: AM14 ELISA; F9 (pH 8, 50 mM NaCl, 4.5% sucrose); 2 wk 25°C
[14] = molecular target: T1, RSV F protein of subtype A comprising a …; assay: AM14 ELISA; F8 (pH 7, 50 mM NaCl, 0% sucrose); 2 wk 25°C
[15] = molecular target: T1, RSV F protein of subtype A comprising a …; assay: AM14 ELISA; F6 (pH 7, 0 mM NaCl, 4.5% sucrose); 2 wk 5°C

Molecule | Prefusion Content (%) [1] [%] | Prefusion Content (%) [2] [%] | Prefusion Content (%) [3] [%] | Prefusion Content (%) [4] [%] | Prefusion Content (%) [5] [%] | AM14 prefusion content (%), relative to standard [6] [%] | AM14 prefusion content (%), relative to standard [7] [%] | AM14 prefusion content (%), relative to standard [8] [%] | AM14 prefusion content (%), relative to standard [9] [%] | AM14 prefusion content (%), relative to standard [10] [%] | AM14 prefusion content (%), relative to standard [11] [%] | AM14 prefusion content (%), relative to standard [12] [%] | AM14 prefusion content (%), relative to standard [13] [%] | AM14 prefusion content (%), relative to standard [14] [%] | AM14 prefusion content (%), relative to standard [15] [%]
AM14 Fab | 71 | 68 | 62 | 53 | 52 |  |  |  |  |  |  |  |  |  | 
B1 |  |  |  |  |  | 78 | 105 | 106 | 55 | 82 | 75 | 120 | 60 | 85 | 77

Source: patent US20260097113A1 (Pfizer, published 2026)
